This note sets out measurements from patent US20110293610A1 (published 2011).

Common to all, as to test: phage ELISA
A general note: In an ELISA, binding on a coated surface is turned into a signal by an enzyme label.

In one test the target is T1, TNF-beta (human, UniProt P01374 35-205).
T1 construct: also called TNFβ; Tumour Necrosis Factor-beta
T1 sequence (looked up): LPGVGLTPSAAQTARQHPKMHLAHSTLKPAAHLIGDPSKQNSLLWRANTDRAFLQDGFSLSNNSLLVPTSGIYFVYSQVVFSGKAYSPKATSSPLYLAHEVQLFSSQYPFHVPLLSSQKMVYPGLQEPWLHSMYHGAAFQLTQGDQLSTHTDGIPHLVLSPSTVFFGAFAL

The target of a further test is T2, TNF-alpha (human, UniProt P01375 77-233).
T2 construct: also called TNFα; TNF-α
T2 sequence (P01375 77-233 limits assumed): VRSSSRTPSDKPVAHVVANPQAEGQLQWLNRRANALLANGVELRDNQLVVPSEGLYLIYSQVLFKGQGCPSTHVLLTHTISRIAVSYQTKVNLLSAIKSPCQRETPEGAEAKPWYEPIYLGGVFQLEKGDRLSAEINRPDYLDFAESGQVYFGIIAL

Another test has as its target LIGHT (human, UniProt O43557 74-240, limits assumed).
The next test concerns the target T3, TRAIL (human, UniProt P50591 114-281).
T3 construct: also called TNF-related apoptosis inducing ligand

Test [1] has as its target T4, B Lymphocyte Stimulator, soluble form (human) (human, UniProt Q9Y275 134-285, biotinylated with NHS-biotin where used as biotinylated B Lymphocyte Stimulator).
T4 construct: Coated on plastic, captured on streptavidin plates, amine-coupled to a CM5 chip or free in solution, depending on the assay; also called BLyS; immobilized B Lymphocyte Stimulator

Where a chain is given by its changes, count along the chain named.

T3 sequence (P50591 114-281 limits assumed): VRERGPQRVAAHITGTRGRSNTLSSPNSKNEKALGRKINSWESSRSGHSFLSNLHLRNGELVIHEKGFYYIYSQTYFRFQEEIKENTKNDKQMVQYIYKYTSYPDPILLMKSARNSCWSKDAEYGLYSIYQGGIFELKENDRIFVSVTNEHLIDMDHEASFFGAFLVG
Sequence of LIGHT (O43557 74-240 limits assumed): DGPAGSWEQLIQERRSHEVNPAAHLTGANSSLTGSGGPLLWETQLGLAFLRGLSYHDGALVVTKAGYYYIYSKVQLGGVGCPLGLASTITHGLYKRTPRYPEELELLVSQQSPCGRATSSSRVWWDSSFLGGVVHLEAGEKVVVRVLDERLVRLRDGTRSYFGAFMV

B1: I030A10 (scFv)
scFv: QVQLVQSGAEVKKPGSSVKVSCRASGGSFNHAISWVRQAPGRGLEWMGGILPMYGTANYAQKFQGRVTITADKLTNTVYMDLSRLRYEDTAVYYCARELGLSIVGATTGALDMWGRGTLVTVSSGGGGSGGGGSGGGGSAQAVLTQPSSVSGAPGQRVIISCTGSSSNIGPDYDVHWYQQLPGTAPKLLIYGNNNRPSGVPDRFSGSKSGTSASLAITGLQAEDEAHYYCQSYGSSLSGVVFGGGTKVTVLG
B1: the binding result in the test with TNF-beta is “no binding”; with TNF-alpha, “no binding”; with LIGHT, “no binding”; with TRAIL it was “no binding”; in test [1], “binds”.

B2: I067F05 (scFv)
scFv: QVQLQQSGAEVKKPGSSVKVSCKASGGTFSSYAISWVRQAPGQGLEWMGRIIPIVNMANYAQKFQGRVTLTADKSTGTAYMELTSLRSEDTAVYYCARENYDSLTGYYGAFDIWGKGTMVTVSSGGGGSGGGGSGGGGSQSVLTQPASVSGSPGQSITISCTGTSSDVGGYNYVSWYQQHPGKAPKLMIYEGSKRPSGVSNRFSGSKSGNTASLTISGLQAEDEADYYCSSYTTRSTRVFGGGTKLTVLG
On to B2, for which the binding result was “no binding” with TNF-beta; “no binding” in the test with TNF-alpha; “no binding” in the test with LIGHT; “no binding” with TRAIL; “binds” in test [1].

B3: I026C04 (scFv)
scFv: QVQLVQSGAEVKKPGSSVKVSCRASGGSFNHAISWVRQAPGRGLEWMGGILPMYGTANYAQKFQGRVTITADKLTNTVYMDLSRLRYEDTAVYYCARELGLSIVGATTGALDMWGKGTLVTVSSGGGGSGGGGSGGGGSAQSVLTQPPSVSAAPGQKVTISCSGSSSNIGNNYVSWYQQIPGTAPKLLIYENNKRPSGIPDRFSGSKSGASATLDITGLQTGDEADYYCGTWHSSQVVFGGGTKLTVLG
Consider B3, for which the binding result with TNF-beta was “no binding”; with TNF-alpha, “no binding”; in the test with LIGHT, “no binding”; with TRAIL, “no binding”; in test [1], “binds”.

B4: I025B06 (scFv)
scFv: B3 scFv with T213A
As to B4, the binding result is on record as “no binding” with TNF-beta; “no binding” in the test with TNF-alpha; “no binding” with LIGHT; “no binding” with TRAIL; “binds” in test [1].

B5: I025B09 (scFv)
scFv: B3 scFv with Q3H
notes: also called I0025B09
As to B5, the binding result was “no binding” in the test with TNF-beta; “no binding” with TNF-alpha; “no binding” with LIGHT; “no binding” with TRAIL; “binds” in test [1].

B6: I003C06 (scFv)
scFv: QVQLVQSGAEVKKPGSSVKVSCRASGGSFNHAISWVRQAPGRGLEWMGGILPMYGTANYAQKFQGRVTITADKLTNTVYMDLSRLRYEDTAVYYCARELGLSIVGATTGALDMWGKGTLVTVSSGGGGSGGGGSGGGGSALPVLTQPPSVSVAPGQTATLTCGGTNFGRQSVHWYQQKPGQAPVLAIYHDDVRPSGIPERLSGSKSGNTATLTISRVEAGDEAAYYCQVWDSGSDVVVFGGGTKLTVLG
Take B6: the binding result with TNF-beta is on record as “no binding”; in the test with TNF-alpha it was “no binding”; in the test with LIGHT, “no binding”; in the test with TRAIL it was “no binding”; in test [1], “binds”.

B7: I065F08 (scFv)
scFv: QVQLQQSGAEVKKPGSSVKVSCKASGDTFSSFGISWVRQVPGQGLEWMGAIIPKFDIVTYAEEFKGRVTISADKLTNTAYMEVKSLRSEDTAVYYCTREKSAAGYFDYWGKGTLVTVSSGGGGSGGGGSGGGGSDIVMTQSPSTLSASVGDRVTITCRASQGISSWLAWYQQKPGRAPKVLIYKASTLESGVPSRFSGSGSGTDFTLTISSLQPEDFATYYCQQSYSTPWTFGQGTKLEIKR
Regarding B7, the binding result with TNF-beta is “no binding”; with TNF-alpha it was “no binding”; with LIGHT it was “no binding”; with TRAIL, “no binding”; in test [1] it was “binds”.

B8: I078D02 (scFv)
scFv: QVQLQQSGAEVKKPGASVKVSCKASGYTFTSYGISWVRQAPGQGLEWMGWISAYNGNTNYAQKLQGRVTMTTDTSTSTAYMELRSLRSDDTAVYYCARVYYDILTGYNLFFDYWGKGTMVTVSSGGGGSGGGGSGGGGSQSVLTQPASVSGSPGQSITISCTGTSSDVGGYNYVSWYQQHPGKAPKLMIYEGSKRPSGVSNRFSGSKSGNTASLTISGLQAEDEADYYCSSYTTRSTRVFGGGTKLTVLG
Consider B8, for which the binding result with TNF-beta was “no binding”; in the test with TNF-alpha, “no binding”; with LIGHT, “no binding”; with TRAIL, “no binding”; in test [1], “binds”.

B9: I078H08 (scFv)
scFv: B8 scFv with Q5V, G8A, K116R, M119T
As to B9, the binding result with TNF-beta is given as “no binding”; in the test with TNF-alpha, “no binding”; in the test with LIGHT, “no binding”; in the test with TRAIL, “no binding”; in test [1] it was “binds”.

B10: I026C04-R (scFv)
scFv: QVQLVQSGAEVKKPGSSVKVSCRASGGSFNRHAISWVRQAPGRGLEWMGGILPMYGTANYAQKFQGRVTITADKLTNTVYMDLSRLRYEDTAVYYCARELGLSIVGATTGALDMWGKGTLVTVSSGGGGSGGGGSGGGGSAQSVLTQPPSVSAAPGQKVTISCSGSSSNIGNNYVSWYQQIPGTAPKLLIYENNKRPSGIPDRFSGSKSGASATLDITGLQTGDEADYYCGTWHSSQVVFGGGTKLTVLG
As to B10, the binding result with TNF-beta is “no binding”; in the test with TNF-alpha it was “no binding”; with LIGHT, “no binding”; with TRAIL it was “no binding”; in test [1], “binds”.

B11: I071B03 (scFv)
scFv: QVQLQQSGAEVKKPGASVKVSCKASGYTFTKYTMHWVRQAPGQGPEWMGWINGGSGDTKYSRKFQGRVTITKDTSASAAYMELSSLGSEDTALYYCARATYDPLTGYSFDGFDIWGQGTMVTVSSGGGGSGGGGSGGGGSQSVLTQPASVSGSPGQSITISCTGTSSDVGGYNYVSWYQQHPGKAPKLMIYEGSKRPSGVSNRFSGSKSGNTASLTISGLQAEDEADYYCSSYTTRSTRVFGGGTKLTVLD
As for B11, the binding result with TNF-beta is “no binding”; in the test with TNF-alpha it was “no binding”; with LIGHT, “no binding”; with TRAIL, “no binding”; in test [1], “binds”.

B12: I068B04 (scFv)
scFv: QVQLVQSGAEVKKPGSSVKVSCKASGGTVSSRTISWVRQAPGQGLEWMGGSLPPSGAPIYAQKFQGRVAITADALTNTAFMELRSLKSDDTAVYYCARDQGRYLDLWGRGTLVTVSSGGGGSGGGGSGGGGSALPVLTQPPSASATPGQRVTISCSGSSSNIGSNYVYWYQQLPGTAPKVLIYRNNQRPSGVPDRFSGSRSGTSASLAISGLRSEDEADYYCATWDDSLSGPVFGGGTKVTVLG
Regarding B12, the binding result was “no binding” with TNF-beta; “no binding” in the test with TNF-alpha; “no binding” with LIGHT; “no binding” in the test with TRAIL; “binds” in test [1].

B13: I002A01-R (scFv)
scFv: QVQLVQSGAEVKKPGSSVKVSCRASGGSFNRHAISWVRQAPGRGLEWMGGILPMYGTANYAQKFQGRVTITADKLTNTVYMDLSRLRYEDTAVYYCARELGLSIVGATTGALDMWGKGTLVTVSSGGGGSGGGGSGGGGSALPVLTQPPSVSVAPGQTATLTCGGTNFGRQSVHWYQQKPGQAPVLAIYHDDVRPSGIPERLSGSKSGNTATLTISRVEAGDEAAYYCQVWDSGSDVVVFGGGTKLTVLG
As to B13, the binding result with TNF-beta is given as “no binding”; with TNF-alpha, “no binding”; with LIGHT, “no binding”; with TRAIL, “no binding”; in test [1] it was “binds”.

B14: I002A01-K (scFv)
scFv: B13 scFv with R31K
As to B14, the binding result is recorded as “no binding” with TNF-beta; “no binding” with TNF-alpha; “no binding” in the test with LIGHT; “no binding” with TRAIL; “binds” in test [1].

B15: I065D08 (scFv)
scFv: GVQLVQSGAEVKKPGASVKVSCKASGYTFTSYGISWVRQAPGQGLEWMGWISAYNGNTNYAQKLQGRVTMTTDTSTSTAYMELRSLRSDDTAVYYCARTPSSVYDLLTGYYHYFYSYMDVWGRGTMVTVSSGGGGSGGGGSGGGGSQSVLTQPASVSGSPGQSITISCTGTSSDVGGYNYVSWYQQHPGEAPKLMIYEGSKRPSGVSNRFSGSKSGNTASLTISGLQAEDEADYYCSSYTTRSTRVFGGGTKLTVLG
B15: the binding result with TNF-beta was “no binding”; with TNF-alpha, “no binding”; with LIGHT, “no binding”; in the test with TRAIL, “no binding”; in test [1] it was “binds”.
